± gives the uncertainty stated by the source.

The nature of the data set: self-splicing fitness, log relative to wild type (ln ratio); higher = more splicing; Tetrahymena group I intron in knt gene, E. coli kanamycin selection, DiMSum; sequences stand for … in CUCUCU…GGAGGGAAAAGUUAUCAGGCAUGCACCUGGUAGCUAGUCUUUAAACCAAUAGAUUGCAUCGGUUUAAAAGGCAAGACCGUCAAAUUGCGGGAAAGGGGUCAACAGCCGUUCAGUACCAAGUCUCAGGGGAAACUUUGAGAUGGCCUUGCAAAGGGUAUGGUAAUAAGCUGACGGACAUGGUCCUAACCACGCAGCCAAGUCCUAAGUCAACAGAUCUUCUGUUGAUAUGGAUGCAGUUCACAGACUAAAUGUCGGUCGGGGAAGAUGUAUUCUUCUCAUAAGAUAUAGUCGGACCUCUCCUUAAUGGGAGCUAGCGGAUGAAGUGAUGCAACACUGGAGCCGCUGGGAACUAAUUUGUAUGCGAAAGUAUAUUGAUUAGUUUUGGAGUACUCGUGGUCG
Put shortly:
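Pooled colonies went to amplicon sequencing on an Illumina HiSeq 2500 after six replicate transformations. The plates were LB agar with 100 μg/mL carbenicillin, 50 μM IPTG and 0.2% rhamnose, with or without 25 μg/mL kanamycin, incubated overnight at 37°C or 30°C. The E. coli BL21(DE3) library had all eight P1ex-region intron nucleotides randomised, the intron placed in the knt kanamycin-resistance gene on pET-22b(+). DiMSum fitness is the error-weighted combination of replicate fold changes, kanamycin against none, normalised to wild type.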

As for CACCAGCAAUAUUACGAUGG, the “self-splicing fitness (ln)” value runs as follows: (30 °C) -1.58 ± 0.06; (37 °C) -0.874 ± 0.079.
The like results for ACGCAGCAAUAUUACGAGGC were, in that order, -2.95 ± 0.16 and -2.79 ± 0.3.
As to CCUAAGCAAUAUUACGUCGU, the “self-splicing fitness (ln)” value is, setting by setting: (30 °C) -3.14 ± 0.39; (37 °C) -2.08 ± 0.19.
Regarding CAUGAGCAAUAUUACGGCAC, the “self-splicing fitness (ln)” value (37 °C) is -1.42 ± 0.3.
In the case of AACGAGCAAUAUUACGUGCG, the “self-splicing fitness (ln)” value reads like this: (30 °C) -2.23 ± 0.11; (37 °C) -1.92 ± 0.15.
Regarding CGAAAGCAAUAUUACGUGAA, the “self-splicing fitness (ln)” value by setting is: (30 °C) -2.52 ± 0.092; (37 °C) -1.17 ± 0.12.
Taken in the same sequence, the figures for GUGGAGCAAUAUUACGAAUA were -4.24 ± 0.47 and -2.33 ± 0.38.
CCGAAGCAAUAUUACGUGUU: the “self-splicing fitness (ln)” value was -3.93 ± 0.16 (30 °C) and -2.89 ± 0.15 (37 °C).
Taken in the same sequence, the figures for CAAUAGCAAUAUUACGCACU were -2.14 ± 0.12 and -1.82 ± 0.17.
For CUGUAGCAAUAUUACGACCG, the “self-splicing fitness (ln)” value is, setting by setting: (30 °C) -0.99 ± 0.34; (37 °C) 0.0218 ± 0.25.
In the case of ACCAAGCAAUAUUACGCGUC, the “self-splicing fitness (ln)” value by setting is: (30 °C) -3.45 ± 0.2; (37 °C) -2.46 ± 0.22.
Turning to UGCAAGCAAUAUUACGCCCG, the “self-splicing fitness (ln)” value is -0.288 ± 0.18 (30 °C) and 0.109 ± 0.2 (37 °C).
Consider CUGUAGCAAUAUUACGGAGC, for which, under “37 °C”, the “self-splicing fitness (ln)” value was -2.55 ± 0.49.
For the sequence AGCUAGCAAUAUUACGAUCC, the “self-splicing fitness (ln)” value by setting is: (30 °C) 0.0246 ± 0.14; (37 °C) 0.559 ± 0.16.
As to AUGAAGCAAUAUUACGUGUU, the “self-splicing fitness (ln)” value (30 °C) is -1.64 ± 0.063 and the “self-splicing fitness (ln)” value (37 °C) is -1.64 ± 0.078.
With CCCAAGCAAUAUUACGUUAA, the “self-splicing fitness (ln)” value reads like this: (30 °C) -3.68 ± 0.17; (37 °C) -2.62 ± 0.14.
Taken in the same sequence, the figures for AAGAAGCAAUAUUACGCCAG were -2.87 ± 0.26 and -2.3 ± 0.27.
Turning to GAUUAGCAAUAUUACGGAGA, the “self-splicing fitness (ln)” value was -2.78 ± 0.25 (30 °C) and -2.19 ± 0.24 (37 °C).
As to ACGAAGCAAUAUUACGAUCG, the “self-splicing fitness (ln)” value by setting is: (30 °C) -0.102 ± 0.073; (37 °C) 0.139 ± 0.11.
As to CUAGAGCAAUAUUACGCCUC, the “self-splicing fitness (ln)” value was -3.5 ± 0.2 (30 °C) and -2.88 ± 0.34 (37 °C).
For the sequence UCGAAGCAAUAUUACGAGGG, the “self-splicing fitness (ln)” value is, setting by setting: (30 °C) -2.48 ± 0.15; (37 °C) -1.62 ± 0.2.
For GAGAAGCAAUAUUACGGCGG, the “self-splicing fitness (ln)” value by setting is: (30 °C) -1.9 ± 0.12; (37 °C) -1.25 ± 0.15.
As for GGGGAGCAAUAUUACGUUUU, the “self-splicing fitness (ln)” value was -3.04 ± 0.18 (30 °C) and -2.86 ± 0.25 (37 °C).
As for AAUAAGCAAUAUUACGCUUA, the “self-splicing fitness (ln)” value is -3.19 ± 0.26 (30 °C) and -1.74 ± 0.22 (37 °C).
Regarding CCUGAGCAAUAUUACGGUCU, the “self-splicing fitness (ln)” value (37 °C) was -3.78 ± 0.42.
Regarding GUCAAGCAAUAUUACGCCAG, the “self-splicing fitness (ln)” value runs as follows: (30 °C) -4.54 ± 0.28; (37 °C) -3.95 ± 0.33.
In the case of GAAGAGCAAUAUUACGGCCA, the “self-splicing fitness (ln)” value is -1.59 ± 0.3 (30 °C) and -1.27 ± 0.5 (37 °C).
As for ACUAAGCAAUAUUACGAAUC, the “self-splicing fitness (ln)” value was -3.41 ± 0.21 (30 °C) and -1.05 ± 0.17 (37 °C).
Take AGCUAGCAAUAUUACGACCA: the “self-splicing fitness (ln)” value was -0.512 ± 0.17 (30 °C) and -0.124 ± 0.17 (37 °C).
ACCCAGCAAUAUUACGUUCA: the “self-splicing fitness (ln)” value by setting is: (30 °C) -0.957 ± 0.061; (37 °C) -0.811 ± 0.071.
Taken in the same sequence, the figures for GUACAGCAAUAUUACGAUGC were -1.03 ± 0.12 and -1.06 ± 0.12.
The like results for GCGCAGCAAUAUUACGUCCC were, in that order, -1.14 ± 0.3 and 0.234 ± 0.2.
Take GUUGAGCAAUAUUACGCGGG: the “self-splicing fitness (ln)” value by setting is: (30 °C) -3.17 ± 0.15; (37 °C) -2.51 ± 0.26.
As to UCACAGCAAUAUUACGCCCC, the “self-splicing fitness (ln)” value (30 °C) is -0.433 ± 0.3 and the “self-splicing fitness (ln)” value (37 °C) was -1.51 ± 0.41.

The record behind these values is the supplement of paper PMC7877785.
